Results: article PMC9352680, “A comprehensive thermodynamic model for RNA binding by the Saccharomyces cerevisiae Pumilio protein PUF4”

T1: PUF4 RNA-binding domain (Saccharomyces cerevisiae, UniProt P25339 537-888)
T1 sequence: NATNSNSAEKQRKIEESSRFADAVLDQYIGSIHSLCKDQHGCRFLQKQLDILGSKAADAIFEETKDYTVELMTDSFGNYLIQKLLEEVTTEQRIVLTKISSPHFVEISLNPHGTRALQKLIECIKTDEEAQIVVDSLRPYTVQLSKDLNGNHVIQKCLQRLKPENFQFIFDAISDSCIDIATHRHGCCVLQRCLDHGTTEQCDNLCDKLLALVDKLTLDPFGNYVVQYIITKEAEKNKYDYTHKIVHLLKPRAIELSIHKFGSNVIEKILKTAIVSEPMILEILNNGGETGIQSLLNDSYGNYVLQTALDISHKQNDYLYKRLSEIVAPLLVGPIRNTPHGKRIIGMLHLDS


Target: T1, PUF4 RNA-binding domain
Experiment: Mg; RNA-MaP; 20 mM Na-HEPES pH 7.4, 30 mM KOAc, 0.75 mM MgCl2, 0.1% Tween-20, 5% glycerol, 0.1 mg/mL BSA, 2 mM DTT; 25 C; 0.0125-409.6 nM protein
Conditions: tags: N-His6-TEV cleaved; C-SNAP kept, Cy3B-labelled; label: tethered on chip by stalled RNA polymerase

Binder	Kd [nM]
UCUCUUUCUAUUUAUCUCUU (ssRNA) [Ib_S1_P3E.1_K3.1_C3.1_H3.1_[G2C]_A3.1_[A6T]_F3.1_T3.1]	> 2300
UCUCUUUAUACAUAUCUCUU (ssRNA) [Ib_S1_P3E.1_K3.1_C3.1_H3.1_[G2A]_A3.1_[T5C]_F3.1_T3.1]	900
UCUCUUUGUAUGUCAUUCUCUU (ssRNA) [Ic_S1_P5E.1_K5.1_C5.1_H5.1_A5.1_[T6G]_[A7T]_F5.1_[T8C]_[T9A]_[A10T]_T5.1]	297
UCUCUUUGUACCCCGGUCUCUU (ssRNA) [Ic_S1_P5E.1_K5.1_C5.1_H5.1_A5.1_[T5C]_[T6C]_[A7C]_F5.1_[T8C]_[T9G]_[A10G]_T5.1]	> 2300
UCUCUUUGUACUCUCUUCUCUU (ssRNA) [Ic_S1_P5E.1_K5.1_C5.1_H5.1_A5.1_[T5C]_[A7C]_F5.1_[T9C]_[A10T]_T5.1]	295
UCUCUUUGUAAAUUAAUCUCUU (ssRNA) [Ic_S1_P5E.1_K5.1_C5.1_H5.1_A5.1_[T5A]_[T6A]_[A7T]_F5.1_[T9A]_T5.1]	1.57
UCUCUUUCUAAAUAUCUCUU (ssRNA) [Ib_S1_P3E.1_K3.1_C3.1_H3.1_[G2C]_A3.1_[T5A]_F3.1_T3.1]	> 2300
UCUCUUUGUACGCCCAUCUCUU (ssRNA) [Ic_S1_P5E.1_K5.1_C5.1_H5.1_A5.1_[T5C]_[T6G]_[A7C]_F5.1_[T8C]_[T9C]_T5.1]	564
UCUCUUUGUAUGUAAAUCUCUU (ssRNA) [Ic_S1_P5E.1_K5.1_C5.1_H5.1_A5.1_[T6G]_[A7T]_F5.1_[T8A]_[T9A]_T5.1]	92.9
UCUCUUAGUAUCUAUCUCUU (ssRNA) [Ib_S1_P3E.1_K3.1_C3.1_H3.1_[T1A]_A3.1_[A6C]_F3.1_T3.1]	> 2300
Ic_S2_P3E.1_K3.1_C3.1_H3.1_A3.1_[T5G]_[A6C]_F3.1_[T7G]_[A8T]_T3.1 (ssRNA) RNA: UUUGAUUAAUAUGAUAUCGUUCUUUCUUGUAGCGUUUCUUUCUCGAUAUCAUAUUAAUCUUU	163
Ic_S2_P3E.1_K3.1_C3.1_H3.1_A3.1_[T5G]_[A6C]_F3.1_[A8C]_T3.1 (ssRNA) RNA: UUUGAUUAAUAUGAUAUCGUUCUUUCUUGUAGCUCUUCUUUCUCGAUAUCAUAUUAAUCUUU	181
Ic_S2_P3E.1_K3.1_C3.1_H3.1_A3.1_[T5G]_[A6C]_F3.1_[T7C]_[A8C]_T3.1 (ssRNA) RNA: UUUGAUUAAUAUGAUAUCGUUCUUUCUUGUAGCCCUUCUUUCUCGAUAUCAUAUUAAUCUUU	526
Ic_S2_P3E.1_K3.1_C3.1_H3.1_A3.1_[T5G]_[A6T]_F3.1_[T7C]_[A8G]_T3.1 (ssRNA) RNA: UUUGAUUAAUAUGAUAUCGUUCUUUCUUGUAGUCGUUCUUUCUCGAUAUCAUAUUAAUCUUU	436
Ic_S2_P3E.1_K3.1_C3.1_H3.1_A3.1_[T5G]_[A6T]_F3.1_[T7C]_T3.1 (ssRNA) RNA: UUUGAUUAAUAUGAUAUCGUUCUUUCUUGUAGUCAUUCUUUCUCGAUAUCAUAUUAAUCUUU	751
Ic_S2_P3E.1_K3.1_C3.1_H3.1_A3.1_[T5G]_[A6C]_F3.1_[T7C]_[A8G]_T3.1 (ssRNA) RNA: UUUGAUUAAUAUGAUAUCGUUCUUUCUUGUAGCCGUUCUUUCUCGAUAUCAUAUUAAUCUUU	996
Ic_S2_P3E.1_K3.1_C3.1_H3.1_A3.1_[T5C]_[A6C]_F3.1_[A8T]_T3.1 (ssRNA) RNA: UUUGAUUAAUAUGAUAUCGUUCUUUCUUGUACCUUUUCUUUCUCGAUAUCAUAUUAAUCUUU	7.54
Ic_S2_P3E.1_K3.1_C3.1_H3.1_A3.1_[T5G]_[A6T]_F3.1_[T7A]_[A8T]_T3.1 (ssRNA) RNA: UUUGAUUAAUAUGAUAUCGUUCUUUCUUGUAGUAUUUCUUUCUCGAUAUCAUAUUAAUCUUU	27.7
Ic_S2_P3E.1_K3.1_C3.1_H3.1_A3.1_[T5C]_[A6C]_F3.1_[T7C]_[A8G]_T3.1 (ssRNA) RNA: UUUGAUUAAUAUGAUAUCGUUCUUUCUUGUACCCGUUCUUUCUCGAUAUCAUAUUAAUCUUU	259
Ic_S2_P3E.1_K3.1_C3.1_H3.1_A3.1_[T5C]_[A6C]_F3.1_[T7G]_[A8T]_T3.1 (ssRNA) RNA: UUUGAUUAAUAUGAUAUCGUUCUUUCUUGUACCGUUUCUUUCUCGAUAUCAUAUUAAUCUUU	55.6
Ic_S2_P3E.1_K3.1_C3.1_H3.1_A3.1_[T5G]_[A6C]_F3.1_[A8G]_T3.1 (ssRNA) RNA: UUUGAUUAAUAUGAUAUCGUUCUUUCUUGUAGCUGUUCUUUCUCGAUAUCAUAUUAAUCUUU	156
Ic_S2_P3E.1_K3.1_C3.1_H3.1_A3.1_[T5C]_[A6C]_F3.1_[A8G]_T3.1 (ssRNA) RNA: UUUGAUUAAUAUGAUAUCGUUCUUUCUUGUACCUGUUCUUUCUCGAUAUCAUAUUAAUCUUU	17.7
Ic_S2_P3E.1_K3.1_C3.1_H3.1_A3.1_[T5G]_[A6T]_F3.1_[T7G]_[A8T]_T3.1 (ssRNA) RNA: UUUGAUUAAUAUGAUAUCGUUCUUUCUUGUAGUGUUUCUUUCUCGAUAUCAUAUUAAUCUUU	105
Ic_S2_P3E.1_K3.1_C3.1_H3.1_A3.1_[T5C]_[A6C]_F3.1_[T7A]_[A8C]_T3.1 (ssRNA) RNA: UUUGAUUAAUAUGAUAUCGUUCUUUCUUGUACCACUUCUUUCUCGAUAUCAUAUUAAUCUUU	81.3
Ic_S2_P3E.1_K3.1_C3.1_H3.1_A3.1_[T5C]_[A6G]_F3.1_[T7G]_[A8C]_T3.1 (ssRNA) RNA: UUUGAUUAAUAUGAUAUCGUUCUUUCUUGUACGGCUUCUUUCUCGAUAUCAUAUUAAUCUUU	536
Ic_S2_P3E.1_K3.1_C3.1_H3.1_A3.1_[T5G]_[A6T]_F3.1_[T7A]_T3.1 (ssRNA) RNA: UUUGAUUAAUAUGAUAUCGUUCUUUCUUGUAGUAAUUCUUUCUCGAUAUCAUAUUAAUCUUU	650
